Data published in PMC10761123 (RNA Biology, 2023).

Biological target: the molecule itself
Test: crystal structure

B1: Arabidopsis thaliana PUMY K185A mutant, C-terminal His-tagged, as crystallized (enzyme, UniProt Q84K35 21-330, looked up)
chain: EANNKLRSLVKISPQVSEALSNGRAVVALESTIISHGMPYPQNLQTAKEVESIVRENGAIPATIAILNGVPCIGLSEEELERLASLGKSVQKTAGRDIANVVATRGNGATTVSATLFFASMVGIQVFVTGGIGGVHRHANHSMDISSDLTALGRTPIAVISAGVASILDIPKTLEYLETQEVYVAAYKSDEFPAFFTEKSGCKAPSRVNSPEDCARVIDANMKLNRQAGILFAIPIPKHHSAAGNLIESATQRALTEAREQNVTGNAETPFLLARVNELTGGTSLAANIALVKNNALIGSQIAVALSQLM
- stoichiometry N: 3
